The values below come from paper PMC6449355, “A TetR-family transcription factor regulates fatty acid metabolism in the archaeal model organism Sulfolobus acidocaldarius” (Nature Communications, 2019).

Changes are numbered by the printed parent chain. Names and notes keep the numbering of the source.

The target in data set [1] is T1, FadRSa (Sulfolobus acidocaldarius, UniProt Q4J9S1, M101A).
T1 construct: gene Saci_1107; full-length, recombinant in E. coli Rosetta (DE3), His-tagged (N-terminal from pET45b or C-terminal from pET24a; mutants C-terminal), tag kept; homodimer, 44 kDa
Put plainly: EMSA, ligand response of mutant (fraction of bound DNA). It is filed as binding. The note with it: pH 8.0, 37 °C; allosteric inducer.

Data set [2] has as its target T2, FadRSa (Sulfolobus acidocaldarius, UniProt Q4J9S1).
T2 construct: gene Saci_1107; full-length, recombinant in E. coli Rosetta (DE3), His-tagged (N-terminal from pET45b or C-terminal from pET24a; mutants C-terminal), tag kept; homodimer, 44 kDa
In words: EMSA, release of FadRSa from operator DNA. Format: binding. The note with it: 154-bp Saci_1106 operator probe, pH 8.0, 37 °C; allosteric inducer.

Data set [3] concerns the target T3, FadRSa (Sulfolobus acidocaldarius) (UniProt Q4J9S1).
T3 sequence: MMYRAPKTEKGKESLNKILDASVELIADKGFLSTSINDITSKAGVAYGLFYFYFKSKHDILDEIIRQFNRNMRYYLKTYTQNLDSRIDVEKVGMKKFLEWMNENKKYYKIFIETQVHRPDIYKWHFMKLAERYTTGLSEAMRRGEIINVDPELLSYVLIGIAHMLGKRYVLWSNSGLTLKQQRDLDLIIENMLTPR
Put plainly: EMSA. The conditions noted are these: EMSA/DNase I: 20 mM Tris-HCl pH 8.0, 1 mM MgCl2, 0.1 mM DTT, 12.5% glycerol, 50 mM NaCl, 0.4 mM EDTA, 37 C; EMSA with about 0.1 nM 32P-DNA and excess ….

Data set [4] deals with T3, FadRSa (Sulfolobus acidocaldarius). Put plainly: DNase I footprinting. The conditions noted are these: EMSA/DNase I: 20 mM Tris-HCl pH 8.0, 1 mM MgCl2, 0.1 mM DTT, 12.5% glycerol, 50 mM NaCl, 0.4 mM EDTA, 37 C; EMSA with about 0.1 nM 32P-DNA and excess ….
Data set [5] has the same target. In words: Cu-phenanthroline footprinting. The note with it: EMSA/DNase I: 20 mM Tris-HCl pH 8.0, 1 mM MgCl2, 0.1 mM DTT, 12.5% glycerol, 50 mM NaCl, 0.4 mM EDTA, 37 C; EMSA with about 0.1 nM 32P-DNA and excess ….
Data set [6] shares this target. In words: footprinting. The conditions noted are these: EMSA/DNase I: 20 mM Tris-HCl pH 8.0, 1 mM MgCl2, 0.1 mM DTT, 12.5% glycerol, 50 mM NaCl, 0.4 mM EDTA, 37 C; EMSA with about 0.1 nM 32P-DNA and excess ….
Data set [7] concerns the molecule itself. Put plainly: SEC; free purified FadRSa; apparent molecular weight from a calibrated column (Superdex 200 Increase 10/30 GL, 20 mM Na2HPO4 pH 7.4, 150 mM NaCl).
Data set [8] concerns the molecule itself. Put plainly: crystal structure; SeMet FadRSa, SAD, 2.4 Å, space group P21, two molecules per asymmetric unit; acyl-CoA in subunit B.
Data set [9] deals with the molecule itself. Put plainly: native gel or EMSA; dimer with dimer on operator DNA: 45-bp 32P-labelled wildtype or mutated Saci_1123 operator probes; 20 mM Tris-HCl pH 8.0, 1 mM MgCl2, 0.1 mM DTT, 12.5% glycerol, 50 mM NaCl, 0.4 mM EDTA, 37 °C; 6% acrylamide gels.
Data set [10] deals with T4, FadRSa (Sulfolobus acidocaldarius, UniProt Q4J9S1 1-196).
T4 sequence: T3 sequence
Put plainly: X-ray crystallography; 3.29 A; three dimers with two duplexes; EMSA/DNase I: 20 mM Tris-HCl pH 8.0, 1 mM MgCl2, 0.1 mM DTT, 12.5% glycerol, 50 mM NaCl, 0.4 mM EDTA, 37 C; EMSA with about 0.1 nM 32P-DNA and excess nonspecific competitor DNA. The conditions noted are these: protein: recombinant; (N-terminal pET45b or C-terminal pET24a His tag); chain copies: 2; blunt.

For data set [11], the target named is T4, FadRSa. In words: SEC; 40:1 protein:DNA; complex B2, 179 kDa, two dimers; EMSA/DNase I: 20 mM Tris-HCl pH 8.0, 1 mM MgCl2, 0.1 mM DTT, 12.5% glycerol, 50 mM NaCl, 0.4 mM EDTA, 37 C; EMSA with about 0.1 nM 32P-DNA and excess nonspecific competitor DNA. The note with it: protein: recombinant; (N-terminal pET45b or C-terminal pET24a His tag); chain copies: 2; label: 32P 5' end (EMSA); none (SEC); blunt.

The target in data set [12] is T4, FadRSa. In words: EMSA; single complex B; EMSA/DNase I: 20 mM Tris-HCl pH 8.0, 1 mM MgCl2, 0.1 mM DTT, 12.5% glycerol, 50 mM NaCl, 0.4 mM EDTA, 37 C; EMSA with about 0.1 nM 32P-DNA and excess nonspecific competitor DNA. The conditions noted are these: protein: recombinant; (N-terminal pET45b or C-terminal pET24a His tag); chain copies: 2; label: 32P 5' end (EMSA); none (SEC); blunt.

In data set [13] the target is T4, FadRSa. Put plainly: EMSA; two complexes B1 and B2; EMSA/DNase I: 20 mM Tris-HCl pH 8.0, 1 mM MgCl2, 0.1 mM DTT, 12.5% glycerol, 50 mM NaCl, 0.4 mM EDTA, 37 C; EMSA with about 0.1 nM 32P-DNA and excess nonspecific competitor DNA. The note with it: protein: recombinant; (N-terminal pET45b or C-terminal pET24a His tag); chain copies: 2; label: 32P 5' end; blunt.

T1 sequence (Q4J9S1 entry or part of it M101A): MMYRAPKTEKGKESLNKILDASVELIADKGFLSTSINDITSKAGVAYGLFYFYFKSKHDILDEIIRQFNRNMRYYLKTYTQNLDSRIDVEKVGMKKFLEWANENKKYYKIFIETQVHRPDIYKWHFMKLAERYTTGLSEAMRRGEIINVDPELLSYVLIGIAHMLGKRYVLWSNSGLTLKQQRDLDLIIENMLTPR

Take `CCCCCCCC/C=C\CCCCCCCC(=O)SCCNC(=O)CCNC(=O)[C@H](O)C(C)(C)COP(=O)(O)OP(=O)(O)OC[C@H]1O[C@@H](n2cnc3c(N)ncnc32)[C@H](O)[C@@H]1OP(=O)(O)O` [oleoyl-CoA]: the “EMSA, ligand response of mutant (fraction of bound DNA)” value on FadRSa [1] is given as “alanine mutation of the allosterically altered Met101 residue desensitizes the protein to oleoyl-CoA”. For the same molecule, the “EMSA, release of FadRSa from operator DNA” value on FadRSa [2] is recorded as “addition of acetyl-CoA or hexanoyl-CoA does not affect sensitivity of the protein to oleoyl-CoA”.
With “CGCCCTTTAGAGTGTGGAAGAAGTCAGTGGCACAGTTCTCTTCGTTTAAGCTTTTTTGTATCTCTTCATCAAAATTAAACTATTTGTTTTATTCATTATATCTTAATGTATTTGTGTAAATAATCTTCTTTATTCTAATCAATAAAATTATCGGAGAAGTTTATTATCGAGTTTACCTTTTAACTACAATGATAGTCGACTCAAAAATCAAGTAGTAAAGGTGGTGTGATGTATAGGGCTCC (double strand) [Saci_1107 (fadRSa) peak 2 fragment]”, the binding result in data set [3], in [4] and in data set [5] was “binds” throughout.
For “CTACTTTCTAATATCACTATATTCACGCCTGGCAGACCCGACCTACTATGTTTAAACTTTTATAAAGTTGACATTATAATCAACTGATTATTTTAAAGGCAGTTCTAATTTTTCAAATAAACATAACACTAATCCTATAGATATAACTAATAAC (double strand) [Saci_1123 peak 4 footprint fragment]”, in data set [6], the binding entry is listed as “binds”.
Regarding “CTTCACTCCAAATCCTATTAGGAAAGCTGACACTGAACCGACCTTTTAACTACAATGATAGTCGACTCAAAAATCAAGTATAATATAGTCGAAATATGCCCTCTTGAATAAAACCATGAAATATAAATGAGTCTATTCTGATCTGATAAAGTTC (double strand) [Saci_1106 peak 1 fragment]”, the binding entry in data set [3] and in [4] was “binds” each time.

B1: FadRSa (TetR-family transcriptional regulator encoded by Saci_1107), recombinant His-tagged (natural protein, Sulfolobus acidocaldarius, UniProt Q4J9S1 1-196, looked up)
chain: T3 sequence
notes: FadRSa, TetR-family regulator encoded by Saci_1107 of Sulfolobus acidocaldarius; the fadRSa coding region amplified from genomic DNA; An N-terminally His-tagged (pET45b) and a C-terminally His-tagged (pET24a) construct were both made; also called wildtype FadRSa; source: E. coli Rosetta (DE3), purified (heat treatment 80 °C, His GraviTrap IMAC)
As to B1, the “stoichiometry N” value in [7] came to 2.

B2: SeMet FadRSa (selenomethionine-substituted FadRSa) (natural protein, Sulfolobus acidocaldarius, UniProt Q4J9S1 1-196, looked up)
chain: T3 sequence
modifications: selenomethionine-substituted
notes: FadRSa, TetR-family regulator encoded by Saci_1107 of Sulfolobus acidocaldarius; the fadRSa coding region in pET45b (BamHI/HindIII); One subunit (B) of the crystallised dimer carried an acyl-CoA, likely derived from E. coli; also called SeMet-substituted FadRSa; SeMet-derivated FadRSa
With B2, the binding result in [8] is listed as “binds”.

B3: FadRSa N37A (natural protein, Sulfolobus acidocaldarius, UniProt Q4J9S1 1-196, looked up)
chain: T3 sequence with N37A
notes: FadRSa, encoded by Saci_1107 of Sulfolobus acidocaldarius; made by site-directed mutagenesis with pET24axfadRSaNdenull as template; also called N37A mutant FadRSa; source: E. coli Rosetta (DE3), purified (heat treatment 80 °C, His GraviTrap IMAC)
With B3, the binding result in data set [9] is given as “binds”.

B4: fadRSa operator 21-mer (dsDNA)
DNA 1: GTCGACTCAAAAATCAAGTAG
DNA 2: CTACTTGATTTTTGAGTCGAC
For the molecule B4, the binding result with FadRSa [10] was “binds”.

B5: fadRSa operator 45-bp (dsDNA)
DNA 1: ACTACAATGATAGTCGACTCAAAAATCAAGTAGTAAAGGTGGTGT
DNA 2: ACACCACCTTTACTACTTGATTTTTGAGTCGACTATCATTGTAGT
On to B5, for which the binding result with FadRSa [11] is reported as “binds”.

B6: Saci_1123 operator 45-bp (dsDNA)
DNA 1: ACTACATAATCAGTTGATTATAATGTCAACTTTATAAAGTGGTGT
DNA 2: ACACCACTTTATAAAGTTGACATTATAATCAACTGATTATGTAGT
Turning to B6, the binding result in the data set with FadRSa [12] was “binds”.

B7: mutated Saci_1123 operator 45-bp (dsDNA)
DNA 1: B6 DNA 1 with A9G, A20C
DNA 2: B6 DNA 2 with T26G, T37C
With B7, in the data set with FadRSa [13], the binding result is reported as “binds”.
